Article doi:10.1101/2022.08.24.505111 (bioRxiv, 2022)

Target: the molecule itself
Experiment: crystal structure

B1: Chloramphenicol acetyltransferase III (CATIII+GG construct) (enzyme)
chain: SGGNYTKFDVKNWVRREHFEFYRHRLPCGFSLTSKIDITTLKKSLDDSAYKFYPVMIYLIAQAVNQFDELRMAIKDDELIVWDSVDPQFTVFHQETETFSALSCPYSSDIDQFMVNYLSVMERYKSDTKLFPQGVTPENHLNISALPWVNFDSFNLNVANFTDYFAPIITMAKYQQEGDRLLLPLSVQVHHAVCDGFHVARFINRLQELCNSKLK
stoichiometry N: 3
